Data on 1 molecule can be found in PMC11783328 (Science immunology, 2024).

A word on the stoichiometry N: it is the number of molecules, sites or subunits per partner or assembly.

The target in the test is T1, BG505 SOSIP.v4.1-GT1.1 (HIV-1 (isolate BG505), UniProt Q2N0S6).
T1 construct: copies: 3 + 3
Nature of the test: SPR; Biacore 3000; His-tagged GT1 and GT1.1 trimers captured in parallel flow cells; IgG injected from 1 uM in two- or four-fold dilutions; association 300 s, dissociation 600 s, 50 uL/min; bivalent model (first- and second-point interaction; kon2 and KD2 converted from RU units). Particulars: both partners purified. On the technique in general: Surface plasmon resonance follows binding to a sensor surface in real time, without labels.

B1: gl-3BNC60 (antibody, V domains shown)
VH: not shown
VL: DIQMTQSPSSLSASVGDRVTITCQASQDISNYLNWYQQKPGKAPKLLIYDASNLETGVPSRFSGSGSGTDFTFTISSLQPEDIATYYCQQYEFIGPGTKVDIK
notes: also called 3BNC60 germline; inferred germline precursor of 3BNC60
Consider B1, for which the “stoichiometry N” value was 1.1 paratopes per trimer.
